This is an account of results in PMC8615521, “Mitochondria-Mediated Apoptosis of HCC Cells Triggered by Knockdown of Glutamate Dehydrogenase 1: Perspective for Its Inhibition through Quercetin and Permethylated Anigopreissin A” (Biomedicines, 2021).

The subject of this data set is O=C(O)CCC(=O)C(=O)O. In words: purified protein. The conditions noted are these: NADH.

Chain of GDH1 from bovine liver (glutamate dehydrogenase 1) (Bos taurus) (chain, as listed by the source): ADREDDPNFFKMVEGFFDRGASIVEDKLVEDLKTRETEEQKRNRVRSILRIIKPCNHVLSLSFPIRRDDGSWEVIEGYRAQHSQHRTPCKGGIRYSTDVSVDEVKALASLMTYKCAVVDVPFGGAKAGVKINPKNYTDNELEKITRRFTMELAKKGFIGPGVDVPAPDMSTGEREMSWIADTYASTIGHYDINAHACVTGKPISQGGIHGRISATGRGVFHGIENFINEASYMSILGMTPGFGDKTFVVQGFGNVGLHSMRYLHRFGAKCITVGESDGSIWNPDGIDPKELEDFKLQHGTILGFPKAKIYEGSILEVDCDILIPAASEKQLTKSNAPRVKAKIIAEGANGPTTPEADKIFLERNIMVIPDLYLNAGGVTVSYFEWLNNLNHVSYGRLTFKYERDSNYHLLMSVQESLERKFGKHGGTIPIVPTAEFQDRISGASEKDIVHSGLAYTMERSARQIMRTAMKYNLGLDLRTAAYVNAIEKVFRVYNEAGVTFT

As a reminder, the Km is the substrate concentration at which the rate is half of its maximum. Turning to “GDH1 from bovine liver (glutamate dehydrogenase 1) (Bos taurus)”, the Km was determined as 840 ± 20 µM.
